# Source: article PMC10570040
# Changes are numbered by the printed parent chain.
# T1: EnfR T55I (Thermococcus onnurineus NA1, UniProt B6YTS4 1-146, T55I)
# T1 sequence: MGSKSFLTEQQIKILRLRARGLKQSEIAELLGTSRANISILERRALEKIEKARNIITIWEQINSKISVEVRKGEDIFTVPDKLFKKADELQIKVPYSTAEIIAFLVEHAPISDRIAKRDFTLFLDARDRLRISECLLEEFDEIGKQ
# T2: EnfR wild-type (TON_1525) (Thermococcus onnurineus NA1, UniProt B6YTS4 1-146)
# T2 sequence: T1 sequence with I55T
# T3: EnfR R44A (Thermococcus onnurineus NA1, UniProt B6YTS4 1-146, R44A)
# T3 sequence: T1 sequence with R44A, I55T
# B1: 36-bp target, unlabelled (ITC) (dsDNA)
# DNA 1: CCATCTTAAAATCTTTTTGTTTACATTATACGAGGT
# DNA 2: ACCTCGTATAATGTAAACAAAAAGATTTTAAGATGG
# B2: 36-bp target, Cy5 (dsDNA)
# DNA 1: B1 DNA 1
# DNA 2: B1 DNA 2
# Experiments:
# [1] = biological target: T1, EnfR T55I; assay: ITC; 25 C; N = 0.80; EMSA: 10 mM Tris pH 7.4, 200 mM KCl, 2 mM DTT, 0.2 mM EDTA, 37 C 20 min; ITC: 10 mM Tris-HCl pH 7.4, 200 mM KCl, 1 mM TCEP, 0.2 mM EDTA, 25 C; footprint: 20 mM; conditions: protein: recombinant; tags: C-terminal His6, non-cleavable; chain copies: 2; blunt
# [2] = biological target: T2, EnfR wild-type (TON_1525); assay: ITC; 25 C; N = 0.94; EMSA: 10 mM Tris pH 7.4, 200 mM KCl, 2 mM DTT, 0.2 mM EDTA, 37 C 20 min; ITC: 10 mM Tris-HCl pH 7.4, 200 mM KCl, 1 mM TCEP, 0.2 mM EDTA, 25 C; footprint: 20 mM; conditions: protein: recombinant; tags: C-terminal His6, non-cleavable; chain copies: 2; blunt
# [3] = biological target: T3, EnfR R44A; assay: EMSA; seemed to lose binding; EMSA: 10 mM Tris pH 7.4, 200 mM KCl, 2 mM DTT, 0.2 mM EDTA, 37 C 20 min; ITC: 10 mM Tris-HCl pH 7.4, 200 mM KCl, 1 mM TCEP, 0.2 mM EDTA, 25 C; footprint: 20 mM; conditions: protein: recombinant; tags: C-terminal His6, non-cleavable; chain copies: 2; label: 5'-Cy5; blunt
Binder,Kd [1],Kd [2],binding result [3]
B1,948 ± 130 nM,61.8 ± 20.5 nM,–
B2,–,–,no binding
